# Laboratory results published in patent US6187552A, “Method for identifying inhibitors of JAK2/cytokine receptor binding” (Pharmacia & Upjohn Company, priority 1998, dated 2001).
# Experiments:
# [1] = target: NJAK2 (N-terminal portion of JAK2) (Homo sapiens, UniProt O60674); experiment: SPA: binding of 3H-NJAK2 (N-terminal JAK2) to βc peptides on streptavidin-coated beads; conditions: less than saturating peptide, 40 pmole per reaction, FIG. 12B
# Protocol: Three different labeling reactions were done using ^3 H-N-succinimidyl propionate (^3 H-NSP, Amersham Life Sciences, Arlington Heights, Ill.). One reaction was done using 0.5 mg of purified JAK2 in 0.1 M borate buffer, pH 8.5, with a reaction volume of 150 μl and an incubation time of one hour on ice with dried 1 mCi of ^3 H-NSP (toluene was removed using a stream of nitrogen). […] Another reaction was done using the buffer 0.1 M sodium phosphate, pH 8.0, and a similar volume as before. One milligram of JAK2 in 1.2 ml of phosphate buffer was incubated for three hours on ice. […] A third reaction was done using 2.5 mg of purified JAK2 in 0.1 m sodium phosphate, pH 8.0, and 2.5 ml volume. It was incubated with 5 mCi of dried ^3 H-NSP on ice for 2 hours. […] All three products were separated from unincorporated label using PD-10 columns (Pharmacia Biotech, Uppsala, Sweden) pre-equilibrated with 20 mM Tris, pH 8.0, 0.15 M NaCl.
# Triplicate reactions were done for each data point. The buffer used in all the assays was 35 mM sodium phosphate, 150 mM NaCl, pH 8.0, 10% glycerol. Biotinylated peptides were allowed to bind to streptavidin-coated SPA beads (Amersham Life Sciences, Arlington Heights, Ill., catalog # RPNQ0006) with either less than saturating peptide or excess peptide. […] Under less than saturating conditions, beads and 40 pmole peptide were added to the assay plate well and incubated for one hour with gentle shaking on a Titer plate shaker (Lab-Line Instruments, Inc., Melrose Park, Ill.) at 600 rpm and not washed. […] The plates were then read on a MicroBeta (Wallac) set to read scintillation due to tritium.
# Either ^3 H-JAK2 or ^3 H-NJAK2 was added to the wells and, after incubation, the signals measured. […] A competition reaction was also done by adding 5 to 10-fold excess unlabeled JAK2 in those reactions.
# JAK2 = JAK2 (Homo sapiens, UniProt O60674); experiment: SPA competition: soluble peptide/streptavidin against peptide 4-coated SPA beads for binding 3H-JAK2; set-up: Y918N clone error corrected to Tyr
# Source text: FIGS. 20 A and B illustrate a test of the ability of streptavidin-peptide 4 complexes to compete for binding of 3H-JAK2 to peptide 4-coated SPA beads. For A, #0 is a beads only control. In all reactions with peptide bound to beads, excess peptide 4 [SEQ ID NO:14] was bound to beads before adding soluble samples. The reaction in #1 is peptide 4 [SEQ ID NO:14] bound to beads only, no added peptide 4 [SEQ ID NO:14] or streptavidin. #2 contained soluble peptide 4/streptavidin at a ratio of 1:1. #3 contained soluble peptide 4/streptavidin at a ratio of 4:1. #4 contained 20 μM peptide 4 added as soluble peptide 4. #5 contained 20 μM streptavidin. […] For B, 0 is a beads only control. In all reactions with peptide bound to beads, excess peptide 4 was bound to beads in the presence of 1 mg/ml κ-casein (as described in Materials and Methods of Example 8) before adding soluble samples. The reaction in #1 is peptide 4 bound to beads only, no added peptide 4 or streptavidin. #2 contained peptide 1/streptavidin at a ratio of 4:1 and #3 contained peptide 4/streptavidin at a ratio of 4:1.
# The assay was set up in 96-well plates (Wallac, catalog # 1450-401), Turku, Finland, using a total assay volume of 200, μl/well. Triplicate reactions were done for each data point. The buffer used in all the assays was 35 mM sodium phosphate, 150 mM NaCl, pH 8.0, 10% glycerol. Biotinylated peptides were allowed to bind to streptavidin-coated SPA beads (Amersham Life Sciences, Arlington Heights, Ill., catalog # RPNQ0006) with either less than saturating peptide or excess peptide. For 400 μg SPA beads used per reaction, there was the capacity to bind 49 pmole of biotin (given the binding capacity of 121 pmole biotin/mg bead). Under less than saturating conditions, beads and 40 pmole peptide were added to the assay plate well and incubated for one hour with gentle shaking on a Titer plate shaker (Lab-Line Instruments, Inc., Melrose Park, Ill.) at 600 rpm and not washed. Under conditions of excess peptide, beads and peptide (80 pmole of peptide per 400 μg of bead) were mixed in batch with or without 1 mg/ml K-casein added as described in Results and Discussion, incubated for one hour with rotation, washed three times with buffer and aliquotted into wells. ^3 H-JAK2 or ^3 H-NJAK2 and any other components to be tested were added and the reactions were mixed and incubated for one hour in the dark at room temperature. The plates were then read on a MicroBeta (Wallac) set to read scintillation due to tritium.
# The ability of excess peptide 4 [SEQ ID NO: 14] to compete for binding of JAK2 was tested. Biotinylated peptide 4 was bound to streptavidin in solution to mimic the conditions of the peptide 4 bound to the beads. It was used at a ratio of 1:1 (peptide 4: streptavidin) and at a ratio of 4:1 to see whether having multiple peptides on one streptavidin molecule might do a better job of binding JAK2 and therefore of competing. […] This could be due to the free streptavidin pulling some of the peptide 4 [SEQ ID NO: 14] off the bead. […] Another SPA was done using peptide 4 [SEQ ID NO:14] or peptide 1 [SEQ ID NO:11] bound to streptavidin at a ratio of 4:1. […] The results are shown in panel B of FIG. 20.
# JAK2, sequence (O60674 3-1132): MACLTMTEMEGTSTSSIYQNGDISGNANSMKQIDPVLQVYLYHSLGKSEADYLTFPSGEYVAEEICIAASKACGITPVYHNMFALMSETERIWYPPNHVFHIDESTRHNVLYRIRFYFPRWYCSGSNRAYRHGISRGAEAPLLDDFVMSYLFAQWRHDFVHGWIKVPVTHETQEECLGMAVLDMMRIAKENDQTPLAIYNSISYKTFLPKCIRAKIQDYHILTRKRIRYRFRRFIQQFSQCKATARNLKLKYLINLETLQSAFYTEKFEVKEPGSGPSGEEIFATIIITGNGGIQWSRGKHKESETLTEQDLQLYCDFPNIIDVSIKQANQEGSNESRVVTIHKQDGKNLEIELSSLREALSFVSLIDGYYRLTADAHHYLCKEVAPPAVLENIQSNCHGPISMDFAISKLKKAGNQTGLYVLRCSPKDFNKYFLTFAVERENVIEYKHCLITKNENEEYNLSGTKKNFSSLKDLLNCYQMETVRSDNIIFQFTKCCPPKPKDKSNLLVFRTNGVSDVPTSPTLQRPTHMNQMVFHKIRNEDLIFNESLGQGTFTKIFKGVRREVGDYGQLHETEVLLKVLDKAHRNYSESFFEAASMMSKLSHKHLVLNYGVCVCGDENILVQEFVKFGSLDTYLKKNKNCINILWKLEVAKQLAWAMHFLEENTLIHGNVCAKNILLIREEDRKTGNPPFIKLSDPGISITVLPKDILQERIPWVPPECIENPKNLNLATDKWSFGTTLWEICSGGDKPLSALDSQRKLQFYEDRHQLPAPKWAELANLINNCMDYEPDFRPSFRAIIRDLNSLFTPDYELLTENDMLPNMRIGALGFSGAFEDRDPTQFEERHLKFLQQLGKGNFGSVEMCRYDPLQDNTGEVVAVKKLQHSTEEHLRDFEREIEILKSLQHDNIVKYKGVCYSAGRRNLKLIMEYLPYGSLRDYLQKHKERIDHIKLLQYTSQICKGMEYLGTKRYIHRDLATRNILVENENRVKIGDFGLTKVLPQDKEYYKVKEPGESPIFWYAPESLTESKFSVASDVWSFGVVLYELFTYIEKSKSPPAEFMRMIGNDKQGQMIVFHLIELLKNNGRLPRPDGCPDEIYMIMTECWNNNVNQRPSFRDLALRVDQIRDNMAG
# NJAK2 (N-terminal portion of JAK2), sequence (O60674 1-294 S277G): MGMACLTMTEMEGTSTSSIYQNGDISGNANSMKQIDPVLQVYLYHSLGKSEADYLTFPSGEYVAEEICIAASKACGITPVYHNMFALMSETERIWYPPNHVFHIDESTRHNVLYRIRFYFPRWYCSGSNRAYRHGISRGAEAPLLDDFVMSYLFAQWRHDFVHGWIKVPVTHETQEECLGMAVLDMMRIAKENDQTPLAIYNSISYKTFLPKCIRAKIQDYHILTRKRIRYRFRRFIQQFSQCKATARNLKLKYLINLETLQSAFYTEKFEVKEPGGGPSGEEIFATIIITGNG
sequence,measurement,setting,value
"GIYGYRLRRKWEEKIPNPSKSHLFQNGSAELWP [peptide 4, βc peptide, N-terminal truncation]",activity profile in binding 3H-NJAK2 (signal),[1],peptide 4>peptide 3>peptide 5>peptide 6>peptides 1 and 2
same,binding of JAK2 by peptide in solution,JAK2; conclusion from FIG. 20,binds JAK2 very poorly
same,"competition by peptide in solution, bound to streptavidin or not",JAK2; conclusion from FIG. 20A,competes poorly
same,competition for binding of JAK2,"JAK2; peptide/streptavidin 4:1, beads with 1 mg/ml κ-casein, FIG. 20B",does compete for binding JAK2 but very weakly
same,competition for binding of JAK2,"JAK2; soluble peptide 4/streptavidin 1:1 and 4:1, no κ-casein, FIG. 20A","only minimal, if any, competition was seen"
